Positions count from the first letter of the chain named.

Sequences and labels used below:
B1: 45-7G9-mHvKv-IgG2 (antibody, V domains shown)
VH: QVQLQQPGSALVRPGASVKLSCKASGYTFSNYWIHWVKQRHGQGLEWIGNIYPASDYTNYDEKFKNKGTLTVDTSSSTAYMHLSSLTSEDSAVYYCSRGYFGSLDYWGQGTSVTVSA
VL: DILLTQSPAILSVNPGERVSFSCRASQPIGTGIHWYQQRTNGSPRLLIKSASESISGIPSRFSGSGSGTDFTLTINNVESDDVGDYYCQQSYSWPTTFGGGTKLKIN
B2: 69-3C2-mHvKv-IgG2 (antibody, V domains shown)
VH: DVQLVESGGGLVQPGGSRKLSCAASGFSFSSFGMHWMRQAPEKGLEWVAYISSGSSAIYYADTVKGRFTISRDNPKNTLFLQMTSLRSEDTAMYYCARDWVDYWGQGTTLTVSS
VL: DIQMTQSPASLSVSVGETVTITCRASENIYSNLVWYQQKQGKSPQLLVYTATKLTNGVPSRFSGSGSGTQYSLKINSLQSEDFGTYYCQHFWDTPYTFGGGTKLEMK
B3: 16-1C4-mHvKv-IgG4 (antibody, V domains shown)
VH: QGQMQQSGAELVKPGASVKLSCKTSGFTFSSSYINWLKQKPGQSLEWIAWIFAGTGGTYYNQKFTGKAQLTVDTSSGTAYMQFSSLTTEDSAIYYCARHSPRATLFDFWGQGTTLTVSS
VL: QIVLSQSPAILSASPGEKVTMTCRASSSVNHMHWYQQRTGFSPKAWIYATSNLASGVPARFSGSGSGTSYSLTISRVEAEDAATYYCQQWSSNPYTFGGGTKLEIK
B4: 45-4B9-mHvKv-IgG2 (antibody, V domains shown)
VH: EVQLQQSGPELVKPGASVKMSCKASGYTFTTYVMYWVKQRPGQGLEWIGYINPYNDDIRYNEKFKGKATLTSDRSSSTAYMELSSLTSEDSAVYLCARQGGDYWGQGTILTVSS
VL: DVQITQSPSYLAASPGETITVNCRASKNINKYLAWYQEKPGKTNKLLIYSGSTLQSGIPSRFSGSGSGTDFTLTISSLEPEDFAVYHCQQYNEYPLTFGAGTKLEMK
B5: 45-2B3-mHvKv-IgG2 (antibody, V domains shown)
VH: QVQLQQSGPELVKPGASVKISCKTSGYAFSTSWMNWVKQRPGQGLEWIGRIYPGDGDTDYNGRFKGKATLTADKSSSTAYLQLSSLTSVDSAVYFCARLDGYYEVFYFDYWGQGTTLTVSS
VL: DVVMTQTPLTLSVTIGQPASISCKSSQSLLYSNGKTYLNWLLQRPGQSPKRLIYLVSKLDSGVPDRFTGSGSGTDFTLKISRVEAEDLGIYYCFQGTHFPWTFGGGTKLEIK
B6: 45-8E11-mHvKv-IgG2 (antibody, V domains shown)
VH: EVQLQQSGTVLARPGASVKMSCKASGYSFTSNWMHWVKQRPGQGLEWIGVIYPGNSDTSYNQKFKGKAKLTAVTSASTAYMELSSLTNEDSAVYYCTRGITTAPEYWGQGTTLTVSS
VL: NIVMTQSPKSMSMSVGERVTLSCKASENVGIYVSWYQQKPEQSPKLLIYGASNRYTGVPDRFTGSGSATDFTLTISSVQPEDLADYHCGHTYNYPFTFGSGTKLEIK
B7: 45-8F1-mHvKv-IgG2 (antibody, V domains shown)
VH: B6 VH with N32Y, E82D, E105D
VL: B6 VL with Y32H, N53S, R54G, T56N, H90Q, N93S
B8: 45-7E9-mHvKv-IgG2 (antibody, V domains shown)
VH: QVQLKQSGPGLVQPSQSLSITCTVSGFSLTTYGVHWVRQPPGKGLEWLGVIWSDGNTDYNDAFISRLSITKDNSTSQVFFKMNGLQADDTAIYYCARNSITSVSFDCWGQGTTLTVSS
VL: DIVMTQSQKFMSTSVGDRVSVTCKASQNVGTTVAWYQQRPGQSPKALICSASYRYSGVPDRFTGSGSGTDFTLTISNVQSEDLAEYFCQQYNSYPLTFGSGTKLEIK
B9: 30-5F9-mHvKv-IgG4 (antibody, V domains shown)
VH: QVQLKESGPGLVAPSQSLSITCTVSGFSLTTYDISWVRQPPGKGLEWLGVIWTGGGTNYNSSFMSRLSISKDNSKNQVFLKMNSLQVDDTAIYYCERVDYWGQGTTLTVSS
VL: DVVMTQTPLSLPVSLGDQASISCRSSQSLVHSNGNTYLHWYLQKPGQSPKLLIYKVSNRFSGVPDRFSGSGSGTAFTFKISRVEAEDLGVYFCSQNTHVPWTFGGGTKLEIK
B10: 54-8B11-mHvKv-IgG2 (antibody, V domains shown)
VH: QIQLVQSGPELKKPGETVKISCKASKFTFTNYGMNWVKQAPGKALKWMGWINTYTGEPTYADDFKGRFDFSLETSATTAYLQINNLKNEDTATYFCARREYYPWVFVYWGQGTLVTVSA
VL: ENVLTQSPAIMSASPGEKVTMTCSASSSVSYMHWYQQKSSTSPKLWIYDTSKLASGVPGRFSGSGSGNSYSLTISSMEAEDVATYYCFQGSGYPLTFGGGTKLEIK
B11: 59-5E4-mHvKv-IgG2 (antibody, V domains shown)
VH: QVQLQQPGAELVRPGASVKLSCKASGYTFTTYWINWVRQRPGQGLEWIGNIYPSDSYTNYNQKFKDKASLTVDKSSNTAYMQLSSPTSEDSAVYYCAREAGDGTHYYAIDYWGQGTSVTVSS
VL: NIVMTQSPKSMSMSVGERVTLSCKASENVGTYVSWYQQKPEQSPKLLIYGASNRYPGVPDRFTGSGSATDFTLTISSLQAEDLADYHCGQGYSYLRTFGGGTNLEIK
B12: 56-2A6-mHvKv-IgG2 (antibody, V domains shown)
VH: QIQLVQSGPELKKPGETVKISCKASGYTFTNYGMNWVKQAPGKGFKWMGWINTYTGEPTYADDFKGRFAFSLEISASTAYLQINNLKNEDTATYFCARRDYLGAMDYWGQGTSVTVSS
VL: ENVLTQSPAIMSASPGEKVTMTCRASSSVSSSYLHWYQQKSGASPKLWIYSTSNLASGVPARFSGSGSGTSYSLTISSVEAEDAATYYCQQYSAYLYTFGGGTKLEIK
B13: 70-6F10-mHvKv-IgG2 (antibody, V domains shown)
VH: QVQLQQSGPELVKPGASVKISCKASGYAFNNSWMNWVKQRPGQGLEWIGRIYPGDGDTDYNGKFKGKATLTADKSSSTAYMQLSSLTSVDSAVYFCARLDGNYYYWYFDVWGAGTTVTVSS
VL: not shown
B14: 70-3F9-mHvKv-IgG2 (antibody, V domains shown)
VH: QVQLQQPGAELVRPGASVKLSCKASGYTFTSYWINWVKQRPGQGLEWIGNIFPSDSYTNYNQKFKDRAKLTVDKSSSTAYMQLSSPTSEDSAVYYCTRFGSSGYPDYYTMEYWGQGTSVTVSS
VL: DIQMTQSPASLSASVGETVTITCRASGNIDNYLAWYQQKQGKSPQLLVYNAKTLAEGVPSRFSGSGSGTEYSLKINSLQPEDFGSYHCQQYWTIPYTFGGGTKLEIK
B15: 55-8F6-mHvKv-IgG2 (antibody, V domains shown)
VH: QVQLQQPGAELVRPGASVKLSCKASGYIFTSYWINWVKQRPGQGLEWIGNIYPSDSYTNYNQKFKDKATLTVDKSSSTAYMQLSSPTSEDSAVYYCTRFHYGSSPFDNWGQGTTLTVSS
VL: DIQMTQSTSSLSASLGDRVTISCRASQDISHYLNWYQQKPDGTVKLLIYYTSRLHSGVPSRFSGSGSGTDYSLTISNLEQEDFATYFCQQGHTLPRTFGGGTKLEIK
B16: 45-8E2-mHvKv-IgG2 (antibody, V domains shown)
VH: EVKLLESGGGLVQPGGSLKLSCAASGFDFSRYWMSWVRQAPGKGLEWIGEIHPDSSAINYTPSLKDKFIISRDNAKNTLYLQMSKVRSEDTALYYCARSYYGRVFDYWGQGTTLTVSS
VL: DIVMTQSPATLSVTPGDRVSLSCRASQSISDYLHWYQQKSHESPRLLIKYASQSISGIPPRFSGSGSGSDFTLSINSVEPEDVGMYYCQDGHSFPPTFGAGTKLELK
B17: 61-6A7-mHvKv-IgG2 (antibody, V domains shown)
VH: EVQLQQSGAELVRPGALVKLSCKASGFNIKDYYMHWVKRRPEQGLEWIGWIDPENGNTIYDPKFQDKASITADTSSNTAYLQLSSLTSEDTAVYYCAEGLPWYFDYWGQGTTLTVSS
VL: QIILTQSPALMSASPGEKVTMTCSASSSVSDMNWYQQKPRSSPTPWIYLTSNLSSGVPDRFSGSGSGTSYSLTISSMEAEDAATYYCQQWSGNPLTFGAGTRLELK
B18: 29-6A5-mHvKv-IgG2 (antibody, V domains shown)
VH: QVQLQQPGAELVRPGASVKLSCKASGYTFSSYWINWVKQRPGQGLEWIGNIYPSDSYTNYNQKFKDKATLTVDKSSSTAYMQLSSPTSDDSAVYYCTRTWEFYYDSVFDYWGQGTTLTVSS
VL: DIKMTQSPSSMYASLGERVTITCKASQDINSYLSWFQQKPGKSPKTLIYRANRLVDGVPSRFSGSGSGQDYSLTISSLEYEDMGIYYCLQYDELPPTFGGGTKLEIK
B19: 1C4-H2K3-IgG4 (antibody, V domains shown)
VH: QVQMVQSGAEVKKPGASVKLSCKASGFTFSSSYINWLRQAPGQSLEWIGWIFAGTGGTYYNQKFTGRVQITRDTSASTAYMELSSLRSEDTAIYYCARHSPRATLFDFWGQGTTLTVSS
VL: EIVLTQSPATLSLSPGERATMSCRASSSVNHMHWYQQKPGFSPRAWIYATSNLASGIPARFSGSGSGTSFTLTISSLEPEDFATYYCQQWSSNPYTFGGGTKLEIK
notes: humanized
B20: 1C4-H1K1-IgG4 (antibody, V domains shown)
VH: B19 VH with S44R, I48M, Q69T
VL: B19 VL with M21L, F41Q, S42A, W46L, T84V
notes: humanized; also called 1C4-IgG4-H1K1

The assay deals with T1, Histidine-tagged human 4-1BB protein (h4-1BB-His) (human, UniProt Q07011 24-186).
T1 construct: not shown: histidine tag
Put plainly: SPR (Biacore T200), antibody on Protein A chip, h4-1BB-His injected.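 Further: dissociation phase followed for 300 s, Kd derived as koff divided by kon from the kinetic fit.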 For orientation: In SPR one partner is held on a chip, and binding of the other changes the refractive index at the surface.
Broadly, the Kd is a measure of binding affinity in units of concentration. A lower Kd goes with higher affinity. A word on the koff: it is a measure of how fast the partners let go of each other. Low readings indicate slow dissociation, high ones fast dissociation. In general, kon refers to a measure of how fast the partners come together. Lower therefore signals slower complex formation. B1 displayed a Kd of 23.1 nM, a koff of 0.0041 s⁻¹ and a kon of 177000 M⁻¹ s⁻¹.
In turn, B2 came in with a Kd of 0.45 nM, a dissociation rate constant (koff) of 0.000521 s⁻¹ and an on-rate (kon) of 1.16e+06 M⁻¹ s⁻¹.
B3 registered a dissociation constant Kd of 20.5 nM, a koff of 0.000502 s⁻¹ and a kon of 24400 M⁻¹ s⁻¹.
For B4, in that order: 110 nM, 0.00298 s⁻¹ and 27200 M⁻¹ s⁻¹.
For the molecule B5, the affinity, expressed as Kd, was 4.96 nM; the koff came to 0.000138 s⁻¹; the kon worked out at 27700 M⁻¹ s⁻¹.
B6 registered a dissociation constant (Kd) of 0.597 nM, a dissociation rate constant (koff) of 0.000127 s⁻¹ and a kon of 214000 M⁻¹ s⁻¹.
For B7, in that order: 62.3 nM, 0.00293 s⁻¹ and 47000 M⁻¹ s⁻¹.
For B8, in that order: 15.3 nM, 0.00916 s⁻¹ and 600000 M⁻¹ s⁻¹.
With B9, the Kd was determined as 9.91 nM, the off-rate (koff) turned out to be 0.00247 s⁻¹ and the kon turned out to be 249000 M⁻¹ s⁻¹.
For B10, the Kd turned out to be 12 nM, the koff is 0.00502 s⁻¹ and the kon turned out to be 417000 M⁻¹ s⁻¹.
With B11, the affinity, expressed as Kd, was 0.313 nM; the koff is 0.000331 s⁻¹; the kon is 1.06e+06 M⁻¹ s⁻¹.
On to B12, for which the dissociation constant (Kd) was 14 nM, the koff came out at 0.00141 s⁻¹ and the kon amounted to 101000 M⁻¹ s⁻¹.
On to B13, for which the Kd was 10.9 nM, the off-rate constant (koff) stood at 0.000263 s⁻¹ and the on-rate constant (kon) is 24100 M⁻¹ s⁻¹.
As to B14, binding was characterised by a dissociation constant (Kd) of 0.16 nM, the off-rate constant (koff) came out at 0.000159 s⁻¹ and the kon amounted to 999000 M⁻¹ s⁻¹.
Regarding B15, binding was put at a Kd of 2.18 nM, the off-rate (koff) was 0.00341 s⁻¹ and the kon was determined as 1.57e+06 M⁻¹ s⁻¹.
In turn, B16 yielded a Kd of 1.28 nM, an off-rate (koff) of 0.000413 s⁻¹ and a kon of 323000 M⁻¹ s⁻¹.
B17 gave an equilibrium dissociation constant (Kd) of 0.359 nM, a dissociation rate constant (koff) of 0.000513 s⁻¹ and a kon of 1.43e+06 M⁻¹ s⁻¹.
B18 registered a Kd of 0.371 nM, a dissociation rate constant (koff) of 0.000715 s⁻¹ and a kon of 1.93e+06 M⁻¹ s⁻¹.
Regarding B19, the equilibrium dissociation constant (Kd) worked out at 17.6 nM, the koff turned out to be 0.000502 s⁻¹ and the association rate constant (kon) turned out to be 28500 M⁻¹ s⁻¹.
For B20, in that order: 23.1 nM, 0.000616 s⁻¹ and 26700 M⁻¹ s⁻¹.
